Measurements reported in patent US20230256114A1, “NOVEL MAYTANSINOIDS AS ADC PAYLOADS AND THEIR USE FOR THE TREATMENT OF CANCER” (priority 2020, published 2023).

How the values were obtained:
[1] = test system: MDA-MB-468 breast cancer cells; assay: In vitro cytotoxicity assay (Cell Counting Kit-8, 72 hours); format: cell-based, human; settings: FIG. 21
Method: Anti-Trop-2 ADCs were conjugated with different DM1 derivatives with similar DARs, and were tested ahead to ahead with anti-Trop-2-SMCC-DM1 and anti-Trop-2-vc-MMAE against BxPC-3 pancreatic cancer cells representing high Trop-2 expression, MDA-MB-468 breast cancer cells, N87 gastric cancer cells, and SK-BR-3 […] cancer cells representing moderate Trop-2 expression, Colo205 colon cancer cells representing low Trop-2 expression, and A549 lung cancer cells and MDA-MB-231 breast cancer cells with undetectable level of Trop-2. In vitro cytotoxicity assay was performed. Briefly, all cell lines were cultured in a suitable culture medium at 37° C. in a humidified incubator atmosphere of 5% CO2. Cells were plated in 96-well flat bottom plates. Cell seeding number ranged from 500 cells//100 ul/well to 6,000 cells/100 μl/well. Cells were allowed to adhere overnight at 37° C. in a humidified atmosphere of 5% CO2. ADCs were prepared from stock solution and diluted into appropriated working concentration 24 hours after cell seeding. […] Cell Counting Kit-8 solution (Dojindo China Co., Ltd, lot #PL701) was added to the wells for 1-4 hours at 37° C. and the absorbance at 450 nm was measured using a Microplate Reader (SpectraMax M5, Molecular Devices) and SoftMax Pro5.4.1 software. Dose-response curves were generated and IC50 was calculated using GraphPad Prism 7 three-parameter curve fitting.

[2] = Solubility of payloads and ADCs (comparison in words); settings: inferred from Table 2
Method: The lipophilicity and aggregation rate of the ADCs of the present invention were characterized. The most commonly used measure of lipophilicity is LogP, which is the partition coefficient of a molecule between aqueous and lipophilic phases, usually octanol and water. […] In this experiment, the LogP of anti-Trop-2 BI-P203 and anti-Trop-2-SMCC-DM1 was calculated using ChemDraw software. Size exclusion chromatography (SEC) was used to characterize the ADC monomer and their aggregates.

[3] = Size exclusion chromatography (SEC) of ADC monomer and aggregates; format: physicochemical; settings: for Aggregation rate (%): anti-Trop-2 ADC with the named payload, Cysteine conjugation
Method: Some embodiments of the invention relate to DM1s linked to antibodies via a non-cleavable linker. In this example, anti-Trop-2 antibody was reduced by adding antibody to TCEP (Tris (2-carboxyethyl) phosphine) dissolved in a pH-adjusted PBS EDTA buffer. The antibody/TCEP solution was incubated at 37° C. for 2-3 hrs. The reduced antibodies were buffer exchanged into conjugation reaction buffer. The BI-P203 payload dissolved in DMSO was added to a solution of reduced anti-Trop-2 monoclonal antibody at payload/antibody ratio of 7-30:1 in order to achieve different drug to antibody ratios (DARs). The payload/antibody solution was incubated for 1-2 hr at 20° C. while the reduced antibody was conjugated to BI-P203 payload via the maleimide group. After conjugation was completed, the reaction mixture was desalted and concentrated to yield anti-Trop-2-DM1 ADCs. The biochemical properties of the resulting ADCs were characterized using size-exclusion chromatography high pressure liquid chromatography (SEC-HPLC) to determine purity and aggregation content, and by using hydrophobic interaction chromatography HPLC (HIC-HPLC) to confirm drug loading (DAR). The conjugation procedure is illustrated in FIG. 12. The final ADC products are comprised of four or six or seven DM1-linker molecules. The cysteine conjugation method used in the conjugation process produces more homogenous ADCs compared to lysine conjugation method.

[4] = as above; format: physicochemical; settings: anti-Trop-2 ADC with the named payload, Lysine conjugation, DAR 3.9

Structure (SMILES)	in vitro activity of the free payload compared with free SMCC-DM1 payload [1]	solubility of payload compared to SMCC-DM1 payload [2]	aggregation rate compared to SMCC-DM1 payload ([3]; ADCs of the payloads)	Aggregation rate (%) ([3]; DAR 3.5)	Aggregation rate (%) ([3]; DAR 6.2)	Aggregation rate (%) ([3]; DAR 7.0)	Aggregation rate (%) [4] [%]
COc1cc2cc(c1Cl)N(C)C(=O)C[C@H](OC(=O)[C@H](C)N(C)C(=O)CCOCCn1cc(COCCOCCOCCOCCNC(=O)CCN3C(=O)C=CC3=O)nn1)[C@@]1(C)O[C@H]1[C@H](C)[C@@H]1C[C@@](O)(NC(=O)O1)C(OC)/C=C/C=C(\C)C2 (stereo partly shown) [BI-P203]	less activity than that of free SCMM-DM1 payload	increased solubility	decreased aggregation rate	0.33	1.0	2.0	
COc1cc2cc(c1Cl)N(C)C(=O)C[C@H](OC(=O)[C@H](C)N(C)C(=O)CCSC1CC(=O)N(CC3CCC(C(=O)ON4C(=O)CCC4=O)CC3)C1=O)[C@]1(C)O[C@H]1[C@H](C)[C@@H]1C[C@@](O)(NC(=O)O1)[C@H](OC)/C=C/C=C(\C)C2 (stereo partly shown) [SMCC-DM1]							3.6
